Laboratory results taken from US20250163449A1, “HERBICIDE-TOLERANT GENES AND METHOD FOR USING SAME” (QINGDAO KINGAGROOT CHEMICAL COMPOUND CO., LTD., priority 2022, published 2025).

Assays:
[1] = Conversion rate of substrate compound A by E. coli expressing each engineered protein (HPLC, oxygenase activity); assay type: biochemical; settings: Reaction condition 1: bacteria cultured overnight, substrate compound A and IPTG added to react overnight
Description: The high-throughput bacterial protein expression was achieved by cloning the synthesized gene that encodes each engineered protein into a bacterial expression vector with a C-terminal histidine tag (His-tag). The vectors were transformed into Escherichia coli (E. coli), and expression of the engineered proteins was induced. E. coli cultures were selected and cultured in centrifuge tubes overnight, meanwhile, added with substrates and IPTG, and the cultures were centrifuged to pellet the bacteria the next day. Alternatively, E. coli cultures were selected and cultured in centrifuge tubes overnight, and centrifuged to pellet the bacteria after adding substrates for reaction the next day. The supernatant of reaction solution was pipetted into a 96-well plate and the absorbance at 510 nm from 4-aminoantipyrine and potassium ferricyanide was measured by an endpoint colorimetric method to detect phenol products. Substrate reduction and product yield were measured by high performance liquid chromatography (HPLC) to detect the oxygenase activity (i.e., enzymatic activity) of the engineered proteins, and the activities of the proteins were compared by calculating conversion rates.
Conversion rate=(Peak area of initial substrate−Peak area of substrate after reaction)/Peak area of initial substrate*100%

[2] = Enzymatic kinetic measurements of purified proteins with compound A as substrate; assay type: biochemical; settings: purified protein, compound A 0-1000 μM as substrate
Experimental: Based on the results of HPLC, representative engineered proteins were selected for protein purification. Further protein characterization, such as Km, Vmax and Kcat, was performed on the 8 engineered proteins from Table 2. Conventional Ni column affinity chromatography was used for protein purification and protein extract purity was assessed by SDS-PAGE analysis. After determining protein concentration by BCA method, enzyme activity was determined.

rice (Jinjing 818) [3] = test: Transgenic rice seedlings, compound B added to medium at rooting phase; assay type: in vivo; settings: at least 1 μM compound B in medium (0.5 and 1 μM for SEQ ID NO: 42), 17-26 days
Experimental: Plant transformation vectors were constructed, each comprising a recombinant DNA molecule encoding an engineered protein (SEQ ID NO: 42/38/82/86/102/106/126/138/142) with the protein-coding sequence optimized for monocot expression, and rice (Jinjing 818) calli were transformed with these vectors using Agrobacterium tumifaciens and standard methods known in the art. Different concentrations of hormone herbicide compound B were added at the rooting phase of the rice seedlings to test hormone resistance, wherein, the test results of control Jinjing 818 plants and transgenic Jinjing 818 plants comprising the protein-coding gene of SEQ ID NO: 42 after adding 0.5 μM and 1 μM compound B to medium for 19 days are shown in FIG. 1. The test results of control Jinjing 818 plants and transgenic Jinjing 818 plants comprising the protein-coding genes of SEQ ID NO: 38/82/86/102/106/126/138/142 after adding 1 μM compound B to medium are shown in FIG. 5-11.

rice (Jinjing 818) [4] = test: Transgenic rice T0 plantlets in greenhouse sprayed with compound B; assay type: in vivo
Experimental: Then, the obtained regenerated TO generation transgenic plantlets grew in the greenhouse, and were sprayed with compound B at the growth stage when approximately two leaves unfolded and the third one just appearing. Resistance levels of plants were recorded and evaluated after spraying treatment, wherein, the test results of control Jinjing 818 plants and transgenic Jinjing 818 plants comprising the protein-coding gene of SEQ ID NO: 42 after applying 20 g, 40 g, 60 g, 80 g, 100 g, 120 g/mu (1 mu=1/15 ha) compound B for corresponding days (DAT) are shown in FIG. 2.

Arabidopsis thaliana [5] = test: T2 transgenic Arabidopsis thaliana seeds screened on compound A medium; assay type: in vivo; settings: 0.15 μM compound A in medium, 11-24 days
Description: Engineered proteins were selected for Arabidopsis thaliana transformation and plant analysis. DNA constructs were transformed into Arabidopsis thaliana using Agrobacterium tumifaciens and standard methods known in the art.
The transformed TO transgenic plantlets grew in the greenhouse. T1 generation Arabidopsis thaliana plant seeds produced by transformation of all constructs were collected after approximately 60 days of growth. Transgenic T1 generation Arabidopsis thaliana plants were screened by adding HYG to medium for T1 generation. T1 plants were selfed to produce seeds of T2 generation Arabidopsis thaliana plants. Wherein, compound A was added to medium to screen and test T2 generation Arabidopsis thaliana plant seeds, that were produced by all constructs, comprising unique events screened by T1 generation.

Arabidopsis thaliana [6] = test: T2 transgenic Arabidopsis thaliana plants foliage-sprayed with compound B; assay type: in vivo; settings: foliage-sprayed with 40 g/mu compound B, 12 days
Description: In addition, compound B was sprayed to test T2 generation Arabidopsis thaliana plants, that were produced by some of the constructs, comprising unique events screened by T1 generation, wherein, the test results of the wild-type Arabidopsis thaliana control plants transformed with RdpA gene and Arabidopsis thaliana plants comprising the protein-coding gene of SEQ ID NO: 42 after being foliage-sprayed with 40 g/mu compound B for 12 days are shown in FIG. 4.

soybean = test: Transgenic soybeans sprayed with compound C; assay type: in vivo; settings: T1 generation plantlets, 10 g, 20 g, 40 g, 80 g compound C sprayed; at least 40 g
Experimental: Engineered proteins were selected for soybean transformation and plant analysis. DNA constructs were transformed into soybeans using Agrobacterium tumifaciens and standard methods known in the art.
The transformed TO transgenic plantlets grew in the greenhouse. TO generation transgenic plantlets were tested by spraying 10 g compound C. […] T1 generation soybean plant seeds produced by transformation of all constructs were collected, and T1 generation seedlings were tested by spraying 10 g compound C.

B1: SEQ ID NO: 42: RdpA mutant L82H + V187L + F182W + G103L (protein)
chain: MHAALSPLSQRFERIAVQPLTGVLGAEITGVDLREPLDDSTWNEILDAFHTYQVIYFPGQAITNEQHIAFSRRFGPVDPVPHLKSIEGYPEVQMIRREANESLRVIGDDWHTDSTFLDAPPAAVVMRAIDVPEHGGDTGFLSMYTAWETLSPTMQATIEGLNVVHSATRVFGSLYQAQNRRWSNTSLKVMDVDAGDRETVHPLVVTHPGSGRKGLYVNQVYCQRIEGMTDAESKPLLQFLYEHATRFDFTCRVRWKKDQVLVWDNLCTMHRAVPDYAGKFRYLTRTTVGGVRPAR
Conversion rate [1]: 96.6% | Kcat [2]: 0.86 S^−1 | Km [2]: 81.3 µM | Vmax [2]: 99.6 | drug resistance (tolerance to compound B) compared with wild-type plants (rice (Jinjing 818) [3]): exhibited better drug resistance | drug resistance (tolerance to compound B) compared with wild-type plants (rice (Jinjing 818) [4]; T0 plantlets foliage-sprayed with 20-120 g/mu compound B, tolerance at at least 120 g/mu): exhibited better drug resistance | tolerance compared with the wild types (summary) (rice (Jinjing 818) [4]; medicated medium test and greenhouse spraying test for T0 generation, compound B): exhibited apparent tolerance | drug resistance compared with wild-type Arabidopsis thaliana (longer roots and larger leaves) (Arabidopsis thaliana [5]): exhibited better drug resistance | drug resistance compared with wild-type plants transformed with RdpA gene (Arabidopsis thaliana [6]): exhibited better drug resistance | drug resistance compared with the wild-type soybeans (soybean): exhibited better drug resistance
